In one assay the target is Rat IL-23R_huFC (rat). In words: rat ELISA vs IL-23. In general terms: In an ELISA, binding on a coated surface is turned into a signal by an enzyme label.
The target of assay [1] is T1, IL-23R on human cells (IL-23R-expressing DB cells; human NK cells) (human, UniProt Q5VWK5 24-629).
T1 sequence (looked up): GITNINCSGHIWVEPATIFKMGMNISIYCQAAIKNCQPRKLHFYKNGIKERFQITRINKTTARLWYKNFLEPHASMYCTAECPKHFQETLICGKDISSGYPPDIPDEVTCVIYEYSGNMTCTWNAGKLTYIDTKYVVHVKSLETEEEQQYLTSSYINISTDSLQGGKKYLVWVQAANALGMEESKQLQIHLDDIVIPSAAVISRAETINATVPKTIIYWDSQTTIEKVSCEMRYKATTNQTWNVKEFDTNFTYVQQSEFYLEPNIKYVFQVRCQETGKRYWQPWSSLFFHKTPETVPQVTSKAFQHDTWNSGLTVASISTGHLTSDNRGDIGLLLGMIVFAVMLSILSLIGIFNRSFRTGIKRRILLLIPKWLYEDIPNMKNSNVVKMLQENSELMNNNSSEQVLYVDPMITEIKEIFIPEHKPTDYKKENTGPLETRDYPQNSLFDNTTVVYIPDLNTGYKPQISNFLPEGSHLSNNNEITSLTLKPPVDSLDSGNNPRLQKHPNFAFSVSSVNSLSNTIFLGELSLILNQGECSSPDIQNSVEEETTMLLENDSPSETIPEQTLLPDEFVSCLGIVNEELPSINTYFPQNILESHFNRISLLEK
In words: cell-based or functional assay.

The target in a further assay is T2, IL23R_huFC (human, UniProt Q5VWK5 24-353).
T2 sequence (looked up): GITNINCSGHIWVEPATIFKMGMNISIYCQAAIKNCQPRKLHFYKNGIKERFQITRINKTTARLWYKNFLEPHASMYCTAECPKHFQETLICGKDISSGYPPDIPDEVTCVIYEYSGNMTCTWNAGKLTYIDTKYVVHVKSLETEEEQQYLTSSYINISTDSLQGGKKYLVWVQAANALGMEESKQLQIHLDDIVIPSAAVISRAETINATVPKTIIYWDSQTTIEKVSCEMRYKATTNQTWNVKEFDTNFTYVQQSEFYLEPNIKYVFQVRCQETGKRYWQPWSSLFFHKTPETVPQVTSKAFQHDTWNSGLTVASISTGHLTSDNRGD
In words: human ELISA vs IL-23.

*1 amine or outer side, *2 acyl side, *3 side chain or, on linkers, in order; H or OH if unused. Bridges are numbered along the chain shown (N, C = ends). Primed or numbered codes have the meaning given here. [ ]: non-standard residue; d: D form. Phe(4-(2-acetylaminoethoxy)) = 4-(2-acetamidoethoxy)-phenylalanine, CC(=O)NCCOc1ccc(C[C@H](N[*:1])C(=O)[*:2])cc1; Phe(4-OMe)(3) = O-methyl-L-tyrosine (4-methoxy-L-phenylalanine), COc1ccc(C[C@H](N[*:1])C(=O)[*:2])cc1; Phe(4-OMe) = 4-methoxy-L-phenylalanine (O-methyl-L-tyrosine), COc1ccc(C[C@H](N[*:1])C(=O)[*:2])cc1; 6‑amino‑1,4‑diazepane‑2,5‑dione = C-terminal 6-amino-1,4-diazepane-2,5-dione group; Phe(3,4-(OMe)2) = COc1ccc(C[C@H](N)C(=O)O)cc1OC; Phe(3,4-Cl2) = N[C@@H](Cc1ccc(Cl)c(Cl)c1)C(=O)O; Phe(3,4-F2) = N[C@@H](Cc1ccc(F)c(F)c1)C(=O)O; 1Nal = N[C@@H](Cc1cccc2ccccc12)C(=O)O; 2Nal = N[C@@H](Cc1ccc2ccccc2c1)C(=O)O; AEF = NCCOc1ccc(C[C@H](N)C(=O)O)cc1; αMeL = CC(C)C[C@](C)(N)C(=O)O; Chg = N[C@H](C(=O)O)C1CCCCC1; Suc = O=C(CCC(=O)[*:2])[*:1]; αMeK = C[C@](N)(CCCCN)C(=O)O; Dab = NCC[C@H](N)C(=O)O; Abu = CC[C@H](N)C(=O)O; Dap = NC[C@H](N)C(=O)O; Aib = CC(C)(N)C(=O)O

Consider Ac-[Abu]QTWQC[AEF][2Nal][αMeK]K(Ac)NG-NH2 (thioether 1-6) [Ac-Cyclo-[[Abu]-QTWQC]-[Phe[4-(2-aminoethoxy)]]-[2-Nal]-[α-MeLys]-[Lys(Ac)]-NG-NH2], for which the IC50 (in general, the concentration at which inhibition is half-maximal) in the assay with Rat IL-23R_huFC is under 10 nM.
With Ac-[Abu]QTWQC[AEF]W[αMeK]K(Ac)-{6‑amino‑1,4‑diazepane‑2,5‑dione-NH2} (thioether 1-6), the “pStat3 HTRF IC50” value in assay [1] was under 10 nM. In the assay with IL23R_huFC, this molecule returned an IC50 of 25 to 100 nM.
With Ac-[Abu]QTWQC[Phe(4-(2-acetylaminoethoxy))][2Nal][αMeK](Ac)K(Ac)NG-NH2 (thioether 1-6) [Ac-Cyclo-[[Abu]-QTWQC]-[Phe[4-(2-(acetyl-aminoethoxy)]]-[2-Nal]-[α-MeLys(Ac)]-[Lys(Ac)]-NG-NH2], the IC50 with Rat IL-23R_huFC is under 10 nM.
Ac-[Abu]QTWQC[AEF][2Nal][Aib]E[Dab](Ac)G-NH2 (thioether 1-6) [Ac-Cyclo-[[Abu]-QTWQC]-[Phe[4-(2-aminoethoxy)]]-[2-Nal]-[Aib]-E-[Dab(Ac)]-G-NH2]: the “pStat3 HTRF IC50” value in assay [1] was under 10 nM. In the assay with Rat IL-23R_huFC, this molecule registered an IC50 of under 10 nM.
For the molecule Ac-[Abu]QTWQC[Phe(4-OMe)(3)][2Nal][αMeK]K(Ac)NGGE-NH2 (thioether 1-6) [Ac-Cyclo-[[Abu]-QTWQC]-[Phe(4-OMe)]-[2-Nal][α-MeLys]-[Lys(Ac)]-NGGE-NH2], in the assay with IL23R_huFC, the IC50 lay within 25 to 100 nM.
On the same count and under the same terms, the same measure for XQTWQCFWXENG (as bracketed in name; thioether cyclo) [Ac-Cyclo-[[Abu]-QTWQC]-[Phe[4-(2-aminoethoxy)]]-W-[Orn]-ENG-NH2]: 25 to 100 nM.
For FXQTWQCFXKENN (as bracketed in name; thioether cyclo) [Ac-F-Cyclo-[[Abu]-QTWQC]]-[Phe[4-(2-aminoethoxy)]]-[2-Nal]-[α-MeLys]-ENN-NH2], the IC50 with Rat IL-23R_huFC was under 10 nM.
The same measure, in the same setting: the same measure for TXQTWQCFXKENN (as bracketed in name; thioether cyclo) [Ac-T-Cyclo-[[Abu]-QTWQC]-[Phe[4-(2-aminoethoxy)]]-[2-Nal]-[α-MeLys]-ENN-NH2]: under 10 nM; for Suc-[Abu]QTWQC[AEF][2Nal][αMeK]K(Ac)NG-NH2 (thioether 1-6) [Succicinyl-Cyclo-[[Abu]-QTWQC]-[Phe[4-(2-aminoethoxy)]]-[2-Nal]-[α-MeLys]-[Lys(Ac)]-NG-NH2]: under 10 nM.
With Ac-[Abu]QTWQC[Phe(4-OMe)][2Nal][αMeL]ENG[dK]-NH2 (thioether 1-6) [Ac-Cyclo-[[Abu]-QTWQC]-[Phe(4-OMe)]-[2-Nal]-[α-MeLeu]-ENG-[(D)Lys]-NH2], the IC50 with IL23R_huFC lay in the range of 25 to 100 nM.
On the same count and under the same terms, the same measure for Ac-[Abu][Dap]TWQC[AEF][Phe(3,4-Cl2)][αMeK]K(Ac)NG-NH2 (thioether 1-6) [Ac-Cyclo-[[Abu]-DapTWQC]-[Phe[4-(2-aminoethoxy)]]-[Phe(3,4-Cl2)]-[α-MeLys]--[Lys(Ac)]-NG-NH2]: 25 to 100 nM.
As to Ac-[Abu]QTWQC[AEF][Phe(3,4-Cl2)][Aib]ENN-NH2 (thioether 1-6) [Ac-Cyclo-[[Abu]-QTWQC]-[Phe[4-(2-aminoethoxy)]]-[Phe(3,4-Cl2)]-[Aib]-ENN-NH2], in assay [1], the “pStat3 HTRF IC50” value was under 10 nM. This molecule also had an IC50 with IL23R_huFC of 25 to 100 nM.
In the assay with IL23R_huFC, Ac-[Abu]QTWQC[AEF][Phe(3,4-(OMe)2)][Aib]ENG-NH2 (thioether 1-6) [Ac-Cyclo-[[Abu]-QTWQC]-[Phe[4-(2-aminoethoxy)]]-[Phe(3,4-OMe2)]-[Aib]-ENG-NH2] showed an IC50 of 25 to 100 nM.
The same measure, in the same setting: the same measure for Ac-[Abu]QTWQC[Phe(4-OMe)(3)][2Nal][Chg]K(Ac)NG-NH2 (thioether 1-6) [Ac-Cyclo-[[Abu]-QTWQC]-[Phe(4-OMe)]-[Nal]-[Chg]-[Lys(Ac)]-NG-NH2]: 25 to 100 nM.
Ac-[Abu]QTWQC[AEF][1Nal][Aib]K(Ac)NG-NH2 (thioether 1-6) [Ac-Cyclo-[[Abu]-QTWQC]-[Phe[4-(2-aminoethoxy)]]-1-Nal[Aib]-[Lys(Ac)]-NG-NH2] registered an IC50 in the assay with IL23R_huFC of 25 to 100 nM.
For Ac-[Abu]QTWQC[Phe(4-(2-acetylaminoethoxy))][2Nal][αMeK](Ac)ENG-NH2 (thioether 1-6) [Ac-Cyclo-[[Abu]-QTWQC]-[Phe[4-(2-(acetyl-aminoethoxy)]]-[2-Nal]-[α-MeLys(Ac)]-ENG-NH2], the “pStat3 HTRF IC50” value in assay [1] was under 10 nM. In the assay with Rat IL-23R_huFC, this molecule displayed an IC50 of under 10 nM.
Regarding Ac-[Abu]QTWQC[AEF][2Nal][αMeK]ENG-NH2 (thioether 1-6) [Ac-Cyclo-[[Abu]-QTWQC]-[Phe[4-(2-aminoethoxy)]]-[2-Nal]-[α-MeLys]-ENG-NH2], in assay [1], the “pStat3 HTRF IC50” value was under 10 nM. The molecule also displayed an IC50 with Rat IL-23R_huFC of under 10 nM.
Regarding Ac-[Abu]QTWQC[Phe(3,4-F2)][2Nal][Aib]ENG-NH2 (thioether 1-6) [Ac-Cyclo-[[Abu]-QTWQC]-[Phe(3,4-F2)]-[2-Nal]-[Aib]-ENG-NH2], the 50% inhibitory concentration (IC50) with IL23R_huFC fell in the range of 25 to 100 nM.
